In patent publication US20230265516A1 (UNIVERSITY OF ARIZONA ARIZONA BOARD OF REGENTS, published 2023):

Biological target: T1, nicotinamide phosphoribosyltransferase (NAMPT), secreted form (Homo sapiens (Human), UniProt P43490 1-491)
T1 construct: also called PBEF; visfatin
Assay: SPR (format not described)

T1 sequence (P43490 whole entry): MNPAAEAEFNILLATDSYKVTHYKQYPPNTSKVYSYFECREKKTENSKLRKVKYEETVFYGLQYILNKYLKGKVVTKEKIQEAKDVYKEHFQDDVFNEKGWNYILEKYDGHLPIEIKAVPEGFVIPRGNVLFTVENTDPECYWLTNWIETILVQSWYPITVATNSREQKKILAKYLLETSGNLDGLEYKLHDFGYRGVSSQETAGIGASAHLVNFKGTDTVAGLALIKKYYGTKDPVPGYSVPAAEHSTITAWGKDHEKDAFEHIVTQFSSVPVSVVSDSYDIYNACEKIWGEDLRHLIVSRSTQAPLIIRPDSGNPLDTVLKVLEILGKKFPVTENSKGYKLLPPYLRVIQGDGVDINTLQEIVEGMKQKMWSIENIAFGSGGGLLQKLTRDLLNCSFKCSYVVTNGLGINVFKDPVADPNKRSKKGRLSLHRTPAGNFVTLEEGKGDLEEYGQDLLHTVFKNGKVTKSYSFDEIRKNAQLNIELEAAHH

B1: humanized anti-NAMPT monoclonal antibody ALT-100 (antibody, V domains shown)
VH: QVQLVQSGAEVTKPGASVKVSCKASGYTFTSYWMQWVRQAPGQGLEWVGEIEPSNSYTNYNQKFRGRVTLTRDTSTTTVYMELSSLRSEDTAVYYCARGGYWGQGTTVTVSS
VL: DIVMTQSPLSLPVTPGEPASISCRSSKSLLHSQGITYLYWYLQKPGQSPQLLIYQLSNRASGVPDRFSGSGSGTDFTLKISRVEAEDVGVYYCVQNLELPYTFGGGTKLEIK
notes: the in vivo control was an IgG1 antibody; also called ALT-100 mAb; Ab3
B1 gave a Kd of 4.5 nM.
